We go through one molecule from patent US20080131434A1 (ONCOMED PHARMACEUTICALS, published 2008).

The target of one assay is T1, EGF1-2.
T1 construct: member of the EGF 1-5 deletion series; also called NOTCH1 EGF 1-2 Fc fusion protein (deletion series)
T1 chain: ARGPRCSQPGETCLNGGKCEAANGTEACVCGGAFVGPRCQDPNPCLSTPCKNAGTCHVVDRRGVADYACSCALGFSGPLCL
As to the kind of experiment: Western blot of Fc fusion proteins of the antigen deletion series, non-reduced SDS-PAGE. An excerpt:
(§1) FIG. 1: Epitope mapping of anti-NOTCH1 monoclonal antibodies that bind to non-ligand binding domains.
(§2) To identify antibodies that recognize specific non-ligand binding regions of the NOTCH receptor extracellular domains, epitope mapping was preformed. In certain embodiments, mammalian expression plasmid vectors comprising a CMV promoter upstream of polynucleotides that encode fragments of the extracellular NOTCH1 domain as Fc fusion proteins were generated using standard recombinant DNA technology. These fusion proteins included a series of NOTCH1 fragments containing a nested series of deletions of EGF domains 1-5 or 10-15. Recombinant proteins were then expressed in cultured mammalian cells by transient transfection. Twenty-four to 48 hours following transfection, cells were harvested and cell lysate protein separated on non-reducing SDS-PAGE acrylamide gels for Western blotting using antibodies from mice immunized with NOTCH1 antigen. […] All antibody affinities were determined by BIAcore.
(In general: In western blotting, separated proteins are transferred to a membrane and probed.)

The next assay concerns the target T2, EGF2-5.
T2 construct: member of the EGF 1-5 deletion series; also called NOTCH1 EGF 2-5 Fc fusion protein (deletion series)
T2 chain: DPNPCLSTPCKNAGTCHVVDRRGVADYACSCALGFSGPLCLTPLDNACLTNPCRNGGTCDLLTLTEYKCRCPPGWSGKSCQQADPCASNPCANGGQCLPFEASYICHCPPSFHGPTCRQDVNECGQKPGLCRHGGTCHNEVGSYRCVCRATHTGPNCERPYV
Described as above.
Text: as §1, §2

The target of the next assay is T3, EGF1.
T3 construct: member of the EGF 1-5 deletion series; also called NOTCH1 EGF 1 Fc fusion protein (deletion series)
T3 chain: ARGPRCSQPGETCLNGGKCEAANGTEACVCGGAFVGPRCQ
The assay is described as above.
Text: as §1, §2

In assay [1] the target is T4, NOTCH1 (construct used in the assay not stated) (human, UniProt P46531 19-220, limits assumed).
T4 sequence (looked up): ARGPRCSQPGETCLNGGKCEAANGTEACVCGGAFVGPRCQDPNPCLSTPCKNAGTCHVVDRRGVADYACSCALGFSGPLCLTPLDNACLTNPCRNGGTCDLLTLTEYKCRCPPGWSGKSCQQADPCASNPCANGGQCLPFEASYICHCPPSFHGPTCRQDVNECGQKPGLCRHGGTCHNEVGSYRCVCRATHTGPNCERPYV
Description: BIAcore; format and NOTCH1 construct not stated.

In assay [2] the target is T5, NOTCH1 EGF 1-3 Fc fusion protein (human, UniProt P46531 19-139, limits assumed).
T5 construct: domain: EGF 1-3; Member of the nested deletion series; not shown: Fc
T5 sequence (looked up): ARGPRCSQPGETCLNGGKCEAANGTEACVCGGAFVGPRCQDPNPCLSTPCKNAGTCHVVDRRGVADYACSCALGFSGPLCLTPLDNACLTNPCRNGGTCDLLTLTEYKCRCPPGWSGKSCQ
Description: Western blot, SDS-PAGE of Fc fusion proteins.
Text: as §1, §2

For assay [3], the target named is T6, NOTCH1 EGF 5 Fc fusion protein (human, UniProt P46531 178-220, limits assumed).
T6 construct: domain: EGF 5; Member of the nested deletion series; also called EGF 5 alone; not shown: Fc
T6 chain (looked up): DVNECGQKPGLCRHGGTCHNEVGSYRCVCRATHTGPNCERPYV
As to the kind of experiment: Western blot, SDS-PAGE of Fc fusion proteins.
Text: as §1, §2

B1: anti-NOTCH1 monoclonal antibody 13M57 (antibody, mouse IgG1, kappa, V domains shown)
VH: EVNLVESGGDLVQPGGSLRLSCAASGFTFSSYTMSWVRQTPEKRLEWVAYIDYGGDFTSYSDAIRGRFTISRDNAKNTLYLQMSSLKSEDTAIYYCSRRRYDAMDYWGQGTSVIVSS
VL: DIQMTQSTSSLSASLGDRVTVSCSASQAISNYLNWYQQKPDGTLKLLIYYTTNLHSGVPSRFSGSGSGTDYSLTISNLEPEDIATYYCQQYSKFPWTFGGGTKLEIKR
notes: Murine hybridoma antibody raised against NOTCH1 EGF repeats 1-5; Conjugated to Alexa Fluor 647 for some FACS work; also called 13M30
Turning to B1, the binding result in the assay with EGF1-2 was “no binding”; with EGF2-5, “binds”; with EGF1 it was “no binding”; in assay [2] it was “no binding”; in assay [3] it was “no binding”. Moreover, in assay [1], binding was characterised by a dissociation constant (Kd) of 0.2 nM.

Broadly, the Kd is the free concentration of one partner at which half of the binding sites on the other are occupied at equilibrium, for simple one-to-one binding. Low values mean a tighter complex, high ones a looser complex.
